Measurements: patent publication US20260116991A1
Substitutions are numbered along the chain they refer to.

B1: hAb006LH3L1 (antibody, human IgG1, V domains shown)
VH: EVQLVQSGAEVKKPGSSVKVSCKASGYTFTDYEIHWVRQAPGQGLEWMGAIDPKTGNTAYNQKFMGRVTLTADKSTSTAYMELSSLRSEDTAVYYCTRYFSFAYWGQGTLVTVSS
VL: DIVMTQTPLSLPVTPGEPASISCRSSQTFVHSNGNTYLQWYLQKPGQSPQLLIYKVSNRFSGVPDRFSGSGSGTDFTLKISRVEAEDVGVYYCFQGSHVPYTFGQGTKLEIK
B2: hAb007LH3L1 (antibody, human IgG1, V domains shown)
VH: B1 VH with I34M, A50T, K54E, M65K, Y99P, F100Y, F102L, A103T
VL: B1 VL with T28S, N35D
B3: hAb007LH3L1b (antibody, human IgG1, V domains shown)
VH: B1 VH with I34M, A50T, K54E, M65K, Y99P, F100Y, F102L, A103T
VL: B1 VL with T28S, G34R, N35D
B4: hAb007LH2L1 (antibody, human IgG1, V domains shown)
VH: B1 VH with I34M, A50T, K54E, M65K, L70I, Y99P, F100Y, F102L, A103T
VL: B1 VL with T28S, N35D
B5: F1.120.16 human-murine chimeric antibody (antibody, human IgG1, kappa, V domains shown)
VH: EFQLQQSGPELVKPGASVKISCKASGYSFTDYNMNWVKQSNGKSLEWIGLIHPKFSVTSYNRKFKGKATLTVDQSSSTAYMQLNSLTSEDSAVYYCARWAGDYFDYWGQGTTLTVSS
VL: DIVLTQSPATLSVTPGDSVSLSCRASQSISNNLHWYQQKSHESPRLLIKYASQSISGIPSRFSGSGSGTDFTLTINSVETEDFGMYFCQQSNSWPQTFGGGTKLEIKR
B6: F1.57.21 human-murine chimeric antibody (antibody, human IgG1, kappa, V domains shown)
VH: QVQLQQSGAELARPGASVKLSCKASGYTFTSYGISWVKQITGQGLEWIGEIYPRSESTYYNEKFKGKATLTADKSSSTAYMELRSLTSEDSAVYFCARDYGNIYSFAYWGQGTLVTVSA
VL: DIQMTQSPASLSASVGETVTITCRTSENIYSYLAWYQQKQGKSPQLLVYNAKTLAEGVPSRFSGSGSGTQFSLKINSLQPEDFGSYYCQHHYGTPLTFGAGTKLELKR
B7: F1.73.9 human-murine chimeric antibody (antibody, human IgG1, kappa, V domains shown)
VH: QVQLKQSGAELVRPGASVKLSCKASGYTFTDYYINWVKQRPGQGLEWIARIYPGSGNTYYNEKFKGKATLTAEKSSSTAYMQFSSLTSEDSAVYFCACSTYYTMDYWGQGTSVTVSS
VL: QIVLTQSPAIMSASLGERVTMTCTASSGVSSSYLHWYQQKPGSSPKLWIYTTSNLASGVPARFSGSGSGTSYSLTISSMEAEDAATYYCHQYHRSPYTFGGGTKLEIKR
B8: F1.115.8 human-murine chimeric antibody (antibody, human IgG1, kappa, V domains shown)
VH: EVQLQQSGPELVKPGASVKMSCKASGYTFTEYYMHWVKQSHGKSLEWIGYIYPNNGGNGYNQKFKGKATLTVDKSSSTAYMGLRSLTSEDSAVYYCVRGYYSNWYFDVWGTGTTVTVSS
VL: DVLMTQTPLSLPVSLGDQASISCRSSQSIVHSNGKTYLEWYLQKPGQSPKLLIYKVSNRFSGVPDRFSGSGSGTDFTLKISRVEAEDLGVYYCFQGSHVPFTFGSGTKLEIKR

target: monkey GPC3-His protein (monkey); assay: ELISA, monkey GPC3-His coated; antibody 66.66 nM

Binder | OD450 nm
B1 | 2.52
B2 | 2.55
B3 | 2.58
B4 | 2.57

target: monkey GPC3-His protein (monkey); assay: ELISA, monkey GPC3-His coated; antibody 2.67 nM

Binder | OD450 nm
B1 | 2.36
B2 | 2.39
B3 | 2.37
B4 | 2.47

target: murine GPC3-his protein (Sino Biological, Cat. No. 50989-M08B) (murine) (UniProt Q8CFZ4); assay: ELISA, coated murine GPC3-His
Sequence (Q8CFZ4 25-558 limits assumed): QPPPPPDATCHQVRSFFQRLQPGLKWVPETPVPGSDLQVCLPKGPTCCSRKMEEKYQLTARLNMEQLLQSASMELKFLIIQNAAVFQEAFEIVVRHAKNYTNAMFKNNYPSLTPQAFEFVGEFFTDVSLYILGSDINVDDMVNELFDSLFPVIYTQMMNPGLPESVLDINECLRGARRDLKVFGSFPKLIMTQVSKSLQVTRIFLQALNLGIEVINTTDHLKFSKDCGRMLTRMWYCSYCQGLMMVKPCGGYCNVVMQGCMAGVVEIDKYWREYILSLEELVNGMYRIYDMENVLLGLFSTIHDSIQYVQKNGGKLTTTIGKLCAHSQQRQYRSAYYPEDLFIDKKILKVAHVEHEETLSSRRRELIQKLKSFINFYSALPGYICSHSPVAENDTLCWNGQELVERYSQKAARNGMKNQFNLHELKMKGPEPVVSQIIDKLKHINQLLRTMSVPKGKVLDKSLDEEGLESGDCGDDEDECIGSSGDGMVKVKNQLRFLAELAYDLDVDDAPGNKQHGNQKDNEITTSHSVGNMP

Binder | OD450 at 0.0001 nM antibody | OD450 at 0.001 nM antibody | OD450 at 0.01 nM antibody | OD450 at 0.1 nM antibody | OD450 at 1 nM antibody | OD450 at 10 nM antibody | OD450 at 100 nM antibody
B5 | 0.05 OD450 nm | 0.07 OD450 nm | 0.16 OD450 nm | 0.72 OD450 nm | 0.76 OD450 nm | 0.8 OD450 nm | 0.54 OD450 nm
B6 | 0.05 OD450 nm | 0.06 OD450 nm | 0.07 OD450 nm | 0.13 OD450 nm | 0.2 OD450 nm | 0.79 OD450 nm | 0.65 OD450 nm
B7 | 0.05 OD450 nm | 0.06 OD450 nm | 0.06 OD450 nm | 0.58 OD450 nm | 0.41 OD450 nm | 0.86 OD450 nm | 0.52 OD450 nm
B8 | 0.05 OD450 nm | 0.05 OD450 nm | 0.07 OD450 nm | 0.34 OD450 nm | 0.4 OD450 nm | 0.7 OD450 nm | 0.6 OD450 nm

target: monkey GPC3-His protein (monkey); assay: ELISA, monkey GPC3-His coated; antibody 13.33 nM

Binder | OD450 nm
B1 | 2.44
B2 | 2.39
B3 | 2.47
B4 | 2.47

target: monkey GPC3 on HEK293T-monkey GPC3 cells (monkey); assay: FACS on HEK293T-monkey GPC3 cells

Binder | EC50 | Max MFI
B1 | 1.7 nM | 34600 MFI
B2 | 13.6 nM | 37400 MFI
B3 | 13.7 nM | 35900 MFI
B4 | 14.8 nM | 37800 MFI

target: monkey GPC3-His protein (monkey); assay: ELISA, monkey GPC3-His coated; antibody 0.53 nM

Binder | OD450 nm
B1 | 2.1
B2 | 2.17
B3 | 1.95
B4 | 2.31

target: monkey GPC3-His protein (monkey); assay: ELISA, monkey GPC3-His coated; antibody 0.02 nM

Binder | OD450 nm
B1 | 0.911
B2 | 0.368
B3 | 0.252
B4 | 0.707

target: monkey GPC3-His protein (monkey); assay: ELISA, monkey GPC3-His coated; antibody 0.11 nM

Binder | OD450 nm
B1 | 1.75
B2 | 1.12
B3 | 0.801
B4 | 1.74

target: monkey GPC3-His protein (monkey); assay: ELISA, monkey GPC3-His coated; antibody 0.004 nM

Binder | OD450 nm
B1 | 0.294
B2 | 0.198
B3 | 0.103
B4 | 0.253

target: monkey GPC3-His protein (monkey); assay: ELISA, monkey GPC3-His coated; antibody 0.0008 nM

Binder | OD450 nm
B1 | 0.116
B2 | 0.079
B3 | 0.069
B4 | 0.101
